This is an account of results in patent US20220306734A1 (H LUNDBECK A S, published 2022).

B1: mGluR5 Ab6 (antibody, V domains shown)
VH: QSLEESGGRLVTPGGTLTLTCTVSGIDLSSYAMSWVRQAPGKGLEWIGIIYASGNTWYANWVKGRFTISKTSTTVDLKMTSPTTEDTATYFCARDSSATFNYLDLWGQGTLVTVSS
VL: AFHMTQTPASMEVAVGGTVTMKCQASESIDTYLNWYQQKPGQPPKLLIYQASKLASGVPSRFKGSGSGTEFTLTISGVECADAATYYCQQGWSTNDVDNVFGGGTEVVVKR
notes: Rabbit variable regions on human heavy and light chain constant regions (chimeric)
B2: mGluR5 Ab1 (antibody, V domains shown)
VH: QQQLEESGGGLVKPGGTLTLTCKVSGIDFSSYYYMCWVRQAPGKGLEWIACIYAGDGGTYYASWAKGRFTSSKTSSTTVTLQMTSLTAADTATYFCARGSGVGSYGYSLWGPGTLVTVSS
VL: DIVMTQTPASVEAAVGGTVTIKCQASESIYSNLAWYQQKPGQPPKLLIYRASNLESGVPSRFKGSGSGTEFTLTISDLECADAATYYCQGYYASTTTNAFGGGTEVVVKR
notes: as for B1
B3: mGluR5 Ab2 (antibody, V domains shown)
VH: B2 VH with V24A, S31G, I52V, A54T, S71I, S108N, P112Q
VL: B2 VL with S94I
notes: as for B1
B4: mGluR5 Ab9 (antibody, V domains shown)
VH: QSVEESGGRLVTPGTPLTLTCTVSGFSLNNYAMNWIRQAPGKGLEWIGIIYGSGSTYYASWAKGRFTASKTSTTVDLKMTSLTTEDTATYFCARDELAAGINYFTLWGQGTLVTVSS
VL: ALVMTQTPASVEVAVGGTVTIKCQASQNIIDWCSWYQQKLGQPPKLLIYEASKLASGVPSRFKGSGSGTQFTLTISGVECADAATYYCQQGYSPSGVDNVFGGGTEVVVKR
notes: as for B1
B5: mGluR5 Ab5 (antibody, V domains shown)
VH: QEQLVESGGGLVQPEGSLTLTCTASGIDFSSGYFMCWVRQAPGKGLEWIACISPYSDNTWYANWAKGRFTISKTSSTTVTLQMTSLTAADTAAYRCARTMAIGAYNPFKLWGQGTLVTVSS
VL: ALVMTQTPSSVSAAVGGTVTINCQASQNIYSNLAWYQQKPGQRPKLLIYDASDLASGVSSRVKGSGSGTEFTLTISDLECADAATYYCQGYYSGNAFGGGTEVVVKR
notes: as for B1
B6: mGluR5 Ab7 (antibody, V domains shown)
VH: QSVEESGGRLVTPGTPLTLTCTVSGFSLSRYAMGWVRHVPGKGLEWIGIIYASGSTYYASWAKGRFTISKTSTTVDLKITSPTTEDTATYFCARSRTATYDAVDPWGPGTLVTVSS
VL: AYDMTQTPASVSEPVGGTVTIKCQASQSISSYLSWYQQKPGQPPKLLIYEASTLASGVSSRFKGSGSGTEYTLTISDLECDDAAAYYCQQDLSGSNLDNSFGGGTEVVVKR
notes: as for B1
B7: mGluR5 Ab8 (antibody, V domains shown)
VH: QSVEESGGRLVTPGTPLTLTCSVSGIDLSSYAMSWVRQAPGKGLEWIGVIYASGSTYYASWAKGRFTISKTSTTVDLKITSPTTGDTATYFCVRDTTATYNYFNLWGQGTLVTVSS
VL: AYDMTQTPASVEVAVGGTATIKCQASQSIYNYLAWYQQKPGQPPKLLIYEASTLASGVPSRFKGSGSGTEFTLTISDLECADAATYYCQQSLSPSNVGRRVFGGGTEVVVKR
notes: as for B1
B8: mGluR5 Ab11 (antibody, V domains shown)
VH: QSLEESGGGLVKPGGTLTLTCTASGFSFSSSYWICWVRQAPGKGLEWIGCIYGSTDAYNANWAKGRFAISQTSSTTVTLQMTSLPAADTATYFCARHDGDIGWTLDLWGPGTLVTVSS
VL: AYDMTQTPASVEVAVGGTVTIKCQASLTIGTRLAWYQQKPGQPPKLLIYKASTLASGVSSRFKGSGSGTQFALTISDLECADAATYYCQQAAYVTDIDNAFGGGTEVVVKR
notes: as for B1
B9: mGluR5 Ab12 (antibody, V domains shown)
VH: QSVEESGGRLVTPGTPLTLTCTVSGIDLSSNAMGWVRQAPGKGLEWIGIIYASGNAWYANWVKGRFTISKTSTTVDLKITSPTTEDTATYFCARDATATWDYFNLWGQGTLVTVSS
VL: AYDMTQTPSSVSAAVGGTVTIKCQASQSISNWLSWYQQKPGQPPKLLIYRASTLASGVSSRFSGSGSGTEFTLTISDLECADAATYYCQQGYSVANVDNAFGGGTEVVVKR
notes: as for B1
B10: mGluR5 Ab10 (antibody, V domains shown)
VH: QSLEESGGRLVTPGTPLTLTCTVSGIDLSSYAVGWVRQAPGKGLEYIGIIYASGNTWYASWVKGRFTISKTSTTVDLKMTSLTTEDTATYFCARGHGATYDYFNLWGPGTLVTVSS
VL: AYDMTQTPASVEVAVGGTVTIKCQASQSISSWLAWYQQKPGQPPKLLIYDASDLASGVPSRFKGSGSGTEYTLTISGVQCDDAATYYCQQGLATANVDNVFGGGTEVVVKR
notes: as for B1

Substitutions are numbered along the chain they refer to.

T3 sequence (Q13255 other isoform, or with tags, fused parts or gaps limits assumed): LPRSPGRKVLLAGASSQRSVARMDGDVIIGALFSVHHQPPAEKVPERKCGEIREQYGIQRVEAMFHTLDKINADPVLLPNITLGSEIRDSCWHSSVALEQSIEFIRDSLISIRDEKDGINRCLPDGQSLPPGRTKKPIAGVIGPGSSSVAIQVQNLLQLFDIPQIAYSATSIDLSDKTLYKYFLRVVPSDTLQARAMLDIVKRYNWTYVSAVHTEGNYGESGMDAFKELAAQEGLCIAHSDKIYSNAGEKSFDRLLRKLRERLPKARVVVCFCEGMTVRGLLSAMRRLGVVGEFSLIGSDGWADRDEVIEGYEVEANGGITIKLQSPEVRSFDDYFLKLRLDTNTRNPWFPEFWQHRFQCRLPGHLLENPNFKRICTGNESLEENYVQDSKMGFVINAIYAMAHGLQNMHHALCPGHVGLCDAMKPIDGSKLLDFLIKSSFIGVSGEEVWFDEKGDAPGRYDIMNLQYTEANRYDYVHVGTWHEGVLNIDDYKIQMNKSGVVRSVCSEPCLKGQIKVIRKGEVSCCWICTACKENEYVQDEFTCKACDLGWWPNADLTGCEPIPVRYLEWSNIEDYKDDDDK
T2 sequence (P41594 other isoform, or with tags, fused parts or gaps limits assumed): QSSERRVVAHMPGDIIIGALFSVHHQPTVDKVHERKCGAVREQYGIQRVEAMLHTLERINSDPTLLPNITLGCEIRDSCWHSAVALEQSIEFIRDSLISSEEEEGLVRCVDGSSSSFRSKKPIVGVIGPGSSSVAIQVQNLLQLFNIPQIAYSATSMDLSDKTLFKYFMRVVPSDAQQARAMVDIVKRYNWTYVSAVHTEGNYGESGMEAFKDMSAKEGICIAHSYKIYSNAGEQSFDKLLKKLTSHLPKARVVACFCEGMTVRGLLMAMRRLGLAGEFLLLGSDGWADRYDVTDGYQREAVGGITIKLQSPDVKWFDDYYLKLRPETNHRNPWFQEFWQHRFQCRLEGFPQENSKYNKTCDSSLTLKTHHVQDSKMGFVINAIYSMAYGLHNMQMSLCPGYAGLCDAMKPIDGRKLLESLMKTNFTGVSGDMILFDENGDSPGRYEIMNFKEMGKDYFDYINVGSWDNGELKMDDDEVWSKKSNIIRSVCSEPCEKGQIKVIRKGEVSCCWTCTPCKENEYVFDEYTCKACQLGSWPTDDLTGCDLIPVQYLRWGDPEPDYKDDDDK

One experiment deals with human mGluR5 extracellular domain (human-mGluR5-ECD) (human) (UniProt P41594). Kind of experiment: HTRF, soluble ECD. For orientation: Time-resolved FRET reads energy transfer from a long-lived donor to a nearby acceptor.
Chain of human mGluR5 extracellular domain (human-mGluR5-ECD) (human) (P41594 other isoform, or with tags, fused parts or gaps): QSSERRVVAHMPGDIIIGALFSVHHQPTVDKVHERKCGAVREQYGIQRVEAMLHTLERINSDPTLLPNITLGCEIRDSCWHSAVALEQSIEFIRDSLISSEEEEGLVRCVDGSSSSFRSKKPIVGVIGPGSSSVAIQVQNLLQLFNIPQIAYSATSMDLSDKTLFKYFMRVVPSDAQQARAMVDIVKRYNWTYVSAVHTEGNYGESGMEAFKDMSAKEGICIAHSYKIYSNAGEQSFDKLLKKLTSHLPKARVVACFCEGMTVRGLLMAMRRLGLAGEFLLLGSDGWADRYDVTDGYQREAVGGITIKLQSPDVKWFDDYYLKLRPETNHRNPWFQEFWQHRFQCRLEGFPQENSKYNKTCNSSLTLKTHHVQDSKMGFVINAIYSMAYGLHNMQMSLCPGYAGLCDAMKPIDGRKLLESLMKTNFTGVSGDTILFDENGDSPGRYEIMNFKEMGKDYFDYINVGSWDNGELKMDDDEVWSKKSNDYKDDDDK
The EC50 is the concentration needed to bring the measured effect to its halfway point. In turn, B1 gave an EC50 of 415 pM.
Still for that read-out and setting: in the case of B2 it was 268 pM; in that of B3, 341 pM.
On to B4, for which the half-maximal effective concentration (EC50) amounted to 998 pM.
B5 registered an EC50 of 540 pM.
Same read-out and setting: as for B6, the figure is 1020 pM; as for B7, 748 pM; as for B8, 545 pM.
The molecule B9 had an EC50 of 775 pM.
Same read-out and setting: in the case of B10 it was 410 pM.

Another experiment has the same target. Kind of experiment: HTRF, soluble ECD. This is another data set of the same source.
In turn, B1 returned an EC50 below 2000 pM.
The same measure, in the same setting: as for B2, the figure is below 2000 pM; as for B3, below 2000 pM.
The same measure, in the same setting: as for B4, the figure is below 2000 pM.
Molecule B5 gave a concentration giving a half-maximal response (EC50) below 2000 pM.
With B6, the EC50 is below 2000 pM.
Same read-out and setting: as for B7, the figure is below 2000 pM.
With B8, the EC50 was below 2000 pM.
B9 had an EC50 below 2000 pM.
On to B10, for which the EC50 was below 2000 pM.

Another experiment deals with full-length (FL) human mGluR5 on BA/F3-mGluR5 clone 10C9 cells (human) (UniProt P41594). Kind of experiment: cell-based or functional assay.
In turn, B1 came in with a pERK Assay Inhibition IC50-nM of 4.29 nM.
The same measure, in the same setting: as for B2, the figure is 0.14 nM; as for B3, 0.16 nM; as for B4, 2.97 nM.
Turning to B5, the pERK Assay Inhibition IC50-nM turned out to be 1.51 nM.
The molecule B6 returned a pERK Assay Inhibition IC50-nM of 1.34 nM.
With B7, the pERK Assay Inhibition IC50-nM is 2.29 nM.
In turn, B8 registered a pERK Assay Inhibition IC50-nM of 0.14 nM.
In turn, B9 had a pERK Assay Inhibition IC50-nM of 3.73 nM.
On to B10, for which the pERK Assay Inhibition IC50-nM is 1.07 nM.

The target of another experiment is T1, rat mGluR5 extracellular domain (rat-mGluR5-ECD) (rat, UniProt P31424 21-504).
T1 construct: ECD construct made 'in a similar fashion' to the human one
T1 sequence (P31424 other isoform, or with tags, fused parts or gaps limits assumed, form in doubt): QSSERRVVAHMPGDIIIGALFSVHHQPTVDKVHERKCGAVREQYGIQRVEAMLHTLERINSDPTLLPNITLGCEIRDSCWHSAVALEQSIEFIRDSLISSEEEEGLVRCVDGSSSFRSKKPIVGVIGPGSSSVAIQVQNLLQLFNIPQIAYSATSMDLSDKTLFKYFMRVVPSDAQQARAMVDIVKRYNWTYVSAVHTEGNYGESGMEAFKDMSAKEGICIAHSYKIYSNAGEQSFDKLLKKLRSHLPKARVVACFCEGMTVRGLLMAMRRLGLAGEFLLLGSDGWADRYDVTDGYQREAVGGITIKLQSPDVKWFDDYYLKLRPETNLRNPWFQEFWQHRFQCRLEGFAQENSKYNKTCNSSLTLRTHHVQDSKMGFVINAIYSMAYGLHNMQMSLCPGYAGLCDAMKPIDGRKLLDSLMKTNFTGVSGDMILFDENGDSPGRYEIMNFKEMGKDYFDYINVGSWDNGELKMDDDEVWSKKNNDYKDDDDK
Kind of experiment: HTRF, soluble ECD. The procedure: (§1) Binding of antibodies to mGluR5/mGluRJ measured via Homogeneous Time-Resolved Fluorescence (HTRF). Binding assays were performed using HTRF reagents from CisBio. Ten microliters of an antibody dilution series (highest final concentration of 30 nM) was incubated with 10 μl of mGluR-ECD (10 nM final concentration) in HTRF buffer (50 mM Phosphate buffer pH7, 0.8M KF (potassium fluoride), 0.2% BSA). Twenty microliters of Europium-labeled anti-hu-Fc donor (2 nM final concentration, CisBio Catalog No. 61HFCKLB) and 20 μl of XL665-labeled anti-Flag acceptor (60 nM final concentration, CisBio Catalog No. 61FG2XLB) were added to each well and incubated for 1 hour at room temperature. Alternatively, the antibody dilution series was incubated with 10 μl of biotinylated mGluR-ECD (10 nM final concentration), and 20 μl of Europium-labeled anti-hu-Fc donor (2 nM final concentration) and 20 μl of d2-labeled streptavidin acceptor (60 nM final concentration, CisBio Catalog No. 610SADLB) were added to each well. Fluorescence was measured at 620 and 665 nm with a delay of 300 μsec. Results were expressed as the ratio of signal at 665 nm over 620 nm. EC₅₀ values were calculated for binding of Ab1-Ab23 to human-mGluR5-ECD, of Ab1-Ab21 to rat-mGluR5-ECD, and of Ab1, Ab2 and Ab4-Ab12 to monkey-mGluR5-ECD and to human-mGluR1-ECD (TABLE 1).
Regarding B1, it took 771 pM to reach a half-maximal effect (EC50).
Consider B2, for which the EC50 amounted to 497 pM.
Still for that read-out and setting: in the case of B3 it was 476 pM; in that of B4, 519 pM.
Regarding B5, the response was half-maximal at 311 pM (EC50).
In turn, B6 registered an EC50 of 630 pM.
Same read-out and setting: in the case of B8 it was 423 pM.
With B9, the EC50 was determined as 991 pM.
For B10, the EC50 stood at 848 pM.

A further experiment addresses T2, cynomolgus monkey mGluR5 extracellular domain (monkey-mGluR5-ECD) (cynomolgus monkey, UniProt P41594 21-580 (human entry), limits assumed).
T2 construct: ECD construct made 'in a similar fashion' to the human one; also called cyno-mGluR5
Kind of experiment: HTRF, soluble ECD. The protocol:
as §1
With B1, the EC50 was found to be 424 pM.
For B2, the response was half-maximal at 371 pM (EC50).
Same read-out and setting: as for B3, the figure is 360 pM; as for B4, 398 pM; as for B5, 310 pM.
For B6, the EC50 amounted to 370 pM.
For the molecule B7, the EC50 was 322 pM.
As for B8, the EC50 amounted to 255 pM.
In turn, B9 had a concentration for a half-maximal effect (EC50) of 359 pM.
B10 displayed an EC50 of 338 pM.

A further experiment has as its target T3, human mGluR1 extracellular domain (human-mGluR1-ECD) (human, UniProt Q13255 19-592, limits assumed).
T3 construct: ECD construct made 'in a similar fashion' to the human mGluR5 one; also called hu-mGluR1
Kind of experiment: HTRF, soluble ECD. The protocol: as §1
For B1, the binding result is “no binding”.
For the molecule B2, the binding result is given as “no binding”.
As for B3, the binding result is reported as “no binding”.
The same measure, in the same setting: as for B4, the entry is “no binding”; as for B5, “no binding”; as for B6, “no binding”.
On the same count and under the same terms, in the case of B7 it was “no binding”; in that of B8, “no binding”; in that of B9, “no binding”.
With B10, the binding result is given as “no binding”.

The target in another experiment is full-length (FL) human mGluR5 on BA/F3-mGluR5 clone 10C9 cells (human) (UniProt P41594). Kind of experiment: flow cytometry, BA/F3-mGluR5 10C9 cells, 10 ug/ml antibody. In general terms: Flow cytometry measures light scatter and fluorescence of single cells or particles in a stream.
With B1, the mGluR5 (FL) cell binding-fold over background stood at 24.4 fold.
Molecule B2 yielded a mGluR5 (FL) cell binding-fold over background of 40.8 fold.
Take B3: the mGluR5 (FL) cell binding-fold over background was 40.3 fold.
Regarding B4, the mGluR5 (FL) cell binding-fold over background was 28.4 fold.
In turn, B5 showed a mGluR5 (FL) cell binding-fold over background of 36.3 fold.
On to B6, for which the mGluR5 (FL) cell binding-fold over background was 28.9 fold.
Molecule B7 had a mGluR5 (FL) cell binding-fold over background of 32.1 fold.
B8 displayed a mGluR5 (FL) cell binding-fold over background of 37 fold.
On to B9, for which the mGluR5 (FL) cell binding-fold over background was determined as 31.9 fold.
In turn, B10 gave a mGluR5 (FL) cell binding-fold over background of 27.9 fold.
